# Experimental data taken from IntAct's records for PubMed 24480479.
# B1: Focal adhesion kinase 1 (Rattus norvegicus (Rat)), O35346 (parent)
# chain: MAAAYLDPNLNHTPSSSTKTHLGTGTERSPGAMERVLKVFHYFESSNEPTTWASIIRHGDATDVRGIIQKIVDSHKVKHVACYGFRLSHLRSEEVHWLHVDMGVSSVREKYELAHPPEEWKYELRIRYLPKGFLNQFTEDKPTLNFFYQQVKSDYMLEIADQVDQDIALKLGCLEIRRSYWEMRGNALEKKSNYEVLEKDVGLKRFFPKSLLDSVKAKTLRKLIQQTFRQFANLNREESILKFFEILSPVYRFDKECFKCALGSSWIISVELAIGPEEGISYLTDKGCNPTHLADFNQVQTIQYSNSEDKDRKGMLQLKIAGAPEPLTVTAPSLTIAENMADLIDGYCRLVNGATQSFIIRPQKEGERALPSIPKLANNEKQGMRTHAVSVSETDDYAEIIDEEDTYTMPSTRDYEIQRERIELGRCIGEGQFGDVHQGVYLSPENPALAVAIKTCKNCTSDSVREKFLQEALTMRQFDHPHIVKLIGVITENPVWIIMELCTLGELRSFLQVRKYSLDLASLILYAYQLSTALAYLESKRFVHRDIAARNVLVSSNDCVKLGDFGLSRYMEDSTYYKASKGKLPIKWMAPESINFRRFTSASDVWMFGVCMWEILMHGVKPFQGVKNNDVIGRIENGERLPMPPNCPPTLYSLMTKCWAYDPSRRPRFTELKAQLSTILEEEKVQQEERMRMESRRQATVSWDSGGSDEAPPKPSRPGYPSPRSSEGFYPSPQHMVQTNHYQISGYPGSHGIPAMAGSIYPGQASLLDQTELWNHRPQEMSMWQPSVEDSAALDLRGMGQVLPPHLMEERLIRQQQEMEEDQRWLEKEERFLKPDVRLSRGSIDREDGSFQGPTGNQHIYQPVGKPDPAAPPKKPPRPGAPGHLSNLSSISSPAESYNEGVKPWRLQPQEISPPPTANLDRSNDKVYENVTGLVKAVIEMSSKIQPAPPEEYVPMVKEVGLALRTLLATVDETIPILPASTHREIEMAQKLLNSDLGELISKMKLAQQYVMTSLQQEYKKQMLTAAHALAVDAKNLLDVIDQARLKMLGQTRPH
# Variants of: B1
# Conditions: with paxi_mouse Pxn
row,Variant,effect of a mutation on the interaction
1,W266A,disrupting interaction
